{"source": "patent US7470669B2", "about": "“Isolated polypeptide comprising a leptin fragment” (Serono Genetics Institute, S.A., priority 1999, dated 2008)", "key": {"Ob-R": {"molecular_target": "T1, Ob-R (Mus musculus, UniProt P48356)", "T1 sequence (P48356 22-894 isoform P48356-2 limits assumed)": "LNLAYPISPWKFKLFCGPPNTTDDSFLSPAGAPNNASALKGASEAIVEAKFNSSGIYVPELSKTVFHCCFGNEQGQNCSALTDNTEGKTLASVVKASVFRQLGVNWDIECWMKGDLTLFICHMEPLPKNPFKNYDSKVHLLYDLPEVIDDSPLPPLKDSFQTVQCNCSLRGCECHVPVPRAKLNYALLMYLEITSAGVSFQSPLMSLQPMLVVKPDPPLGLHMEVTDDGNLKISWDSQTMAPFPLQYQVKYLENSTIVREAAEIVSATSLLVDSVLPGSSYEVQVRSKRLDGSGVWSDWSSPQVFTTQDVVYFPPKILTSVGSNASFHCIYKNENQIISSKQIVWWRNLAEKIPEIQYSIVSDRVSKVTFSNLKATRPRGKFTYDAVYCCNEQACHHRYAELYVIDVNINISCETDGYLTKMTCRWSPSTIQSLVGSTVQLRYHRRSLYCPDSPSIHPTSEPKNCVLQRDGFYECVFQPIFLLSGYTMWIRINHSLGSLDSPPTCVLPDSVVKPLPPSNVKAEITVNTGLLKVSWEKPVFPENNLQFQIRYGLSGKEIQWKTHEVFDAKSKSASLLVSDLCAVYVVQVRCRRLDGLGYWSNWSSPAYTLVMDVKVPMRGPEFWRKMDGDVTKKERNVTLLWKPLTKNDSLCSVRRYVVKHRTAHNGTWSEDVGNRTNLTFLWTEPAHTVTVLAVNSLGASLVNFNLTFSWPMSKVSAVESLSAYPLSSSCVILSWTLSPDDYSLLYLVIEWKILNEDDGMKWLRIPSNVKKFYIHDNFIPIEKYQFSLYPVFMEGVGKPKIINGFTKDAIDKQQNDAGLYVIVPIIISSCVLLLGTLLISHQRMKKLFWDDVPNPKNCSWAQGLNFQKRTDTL", "settings": "Tartaglia et al, 1995; cited from earlier work"}, "lipase": {"tested_on": "lipase", "experiment": "Postheparin lipolytic activity in db^Pas/db^Pas mice", "type": "in vivo, mouse", "settings": "50 μg/animal, t=2 h after test meal", "description": "FIG. 12 contains a Table that presents results showing the effect of test meal with and without leptin injection on postheparin lipolytic activity in db^Pas/db^Pas mice. Animals were gavaged with the test-meal and injected at the same time with 50 μg leptin or physiological saline as described previously (t=0 h). After 1 h, the mice were injected with heparin and blood samples were taken at the peak of postprandial triglyceridemia (t=2 h). Lipase activity was measured in the postheparin plasma as described in the Examples section herein, and is reported here as the mean±SEM (n=3 animals for each condition; ns=not significant).\nMice were gavage-fed and injected with leptin or control solutions as described above. At t=1 h, the mice were injected subcutaneously with heparin (100 IU/kg body weight). At t=2 h, the animals were bled and the plasma was immediately separated by centrifugation. Lipase activity was determined according to Iverius and Brunzell (1985) using 20% Lipoven (Fresenius France Pharma, Louviers, France) as the source of TG. The assay was performed using 25 μL postheparin plasma in 0.15 M NaCl (200 μL total volume), and in the presence of 10 μL heat-inactivated (56° C., 30 min) human plasma as a source of apoC's. Before and at the end of the incubation, FFA concentrations were determined using an enzymatic kit."}, "[1]": {"experiment": "Plasma leptin concentration after subcutaneous leptin injection in ob/ob mice", "type": "in vivo, mouse", "settings": "50 ng s.c., at 2 h", "excerpt": "Na ^125I was purchased from Amersham-Pharmacia (Piscataway, N.J.; Les Ulis, France). Oleic acid, bovine serum albumin (A2153) (BSA), were obtained from Sigma (St. Louis, Mo.; St. Quentin Fallavier, France). Sodium heparin was purchased from Choay laboratories (Gentilly, France). Fugene was purchased from Roche Boehringer Mannheim (Indianapolis, Ind.), and Superfect from Qiagen (Valencia, Calif.). Zeocin was obtained from Invitrogen (Carlsbad, Calif.). Suramin was a gift from Bayer Pharmaceuticals (Puteaux, France). Enzymatic kits for the determination of TG and FFA were obtained from Roche-Boehringer Mannheim (Meylan, France) and WAKO (Richmond, Va.; Unipath, Dardilly, France), respectively. Dulbecco's modified Eagle's medium (DMEM), trypsin, penicillin-streptomycin, glutamine, and fetal bovine serum (FBS) were purchased from Life Technologies, Inc (Grand Island, N.Y.; Eragny, France). RIA kits for plasma leptin measurements were obtained from Linco (St. Louis, Mo.). […]\nThis injection caused a transient increase in plasma leptin concentrations up to 3.25±0.03 ng/mL at 2 h; baseline values were recorded 4 h after injection. […]"}}, "data": [{"substance": "leptin: plasma protein of 16 kDa produced by adipocytes; recombinant human or mouse leptin, species depends on the experiment", "values": [{"measurement": "Kd", "setting": "Ob-R", "value": 0.7, "unit": "nM"}, {"measurement": "lipase activity released in serum after heparin injections", "setting": "lipase", "value": "did not significantly modify lipase activity"}, {"measurement": "plasma leptin concentrations", "setting": "[1]", "value": "3.25 ± 0.03", "unit": "ng/mL"}]}]}
